The results in this text go back to PMC8008353 (The Journal of Biological Chemistry, 2005).

This series concerns the molecule itself. Put plainly: AUC.

B1: NF2 (N protein fragment, residues 211-422) (domain or fragment)
chain: MASGGGETALALLLLDRLNQLESKVSGKGQQQQGQTVTKKSAAEASKKPRQKRTATKQYNVTQAFGRRGPEQTQGNFGDQDLIRQGTDYKHWPQIAQFAPSASAFFGMSRIGMEVTPSGTWLTYHGAIKLDDKDPQFKDNVILLNKHIDAYKTFPPTEPKKDKKKKTDEAQPLPQRQKKQPTVTLLPAADMDDFSRQLQNSMSGASADSTQA
As a reminder, the stoichiometry N is the number of molecules, sites or subunits per partner or assembly. On to B1, for which the “stoichiometry N” value is 2.

B2: NF4 (N protein fragment, residues 285-422) (domain or fragment)
chain: GNFGDQDLIRQGTDYKHWPQIAQFAPSASAFFGMSRIGMEVTPSGTWLTYHGAIKLDDKDPQFKDNVILLNKHIDAYKTFPPTEPKKDKKKKTDEAQPLPQRQKKQPTVTLLPAADMDDFSRQLQNSMSGASADSTQA
As to B2, the “stoichiometry N” value came out at 2.
